Assay in all cases: cell-based or functional assay
The target in test [1] is human Glucagon-Like Peptide-1 receptor (human) (UniProt P43220).
The target of test [2] is T1, human glucose-dependent insulinotropic polypeptide receptor (human) (UniProt P48546).
T1 sequence (looked up): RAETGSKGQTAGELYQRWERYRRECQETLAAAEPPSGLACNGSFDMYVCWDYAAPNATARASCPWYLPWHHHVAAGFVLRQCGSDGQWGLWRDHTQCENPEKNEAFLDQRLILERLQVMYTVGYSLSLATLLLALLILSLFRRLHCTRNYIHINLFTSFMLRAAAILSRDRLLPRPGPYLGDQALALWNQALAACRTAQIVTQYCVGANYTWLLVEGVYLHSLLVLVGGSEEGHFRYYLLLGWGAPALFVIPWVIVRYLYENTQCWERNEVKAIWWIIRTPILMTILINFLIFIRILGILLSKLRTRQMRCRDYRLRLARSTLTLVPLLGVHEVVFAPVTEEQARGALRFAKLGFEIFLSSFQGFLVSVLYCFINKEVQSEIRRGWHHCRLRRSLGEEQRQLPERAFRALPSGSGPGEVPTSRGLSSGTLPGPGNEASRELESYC

Test [3] has as its target recombinant human glucagon receptor (human) (UniProt P47871).

Where only a bound is given, the exact number is not on record here.

human Glucagon-Like Peptide-1 receptor (human), sequence (P43220 24-463): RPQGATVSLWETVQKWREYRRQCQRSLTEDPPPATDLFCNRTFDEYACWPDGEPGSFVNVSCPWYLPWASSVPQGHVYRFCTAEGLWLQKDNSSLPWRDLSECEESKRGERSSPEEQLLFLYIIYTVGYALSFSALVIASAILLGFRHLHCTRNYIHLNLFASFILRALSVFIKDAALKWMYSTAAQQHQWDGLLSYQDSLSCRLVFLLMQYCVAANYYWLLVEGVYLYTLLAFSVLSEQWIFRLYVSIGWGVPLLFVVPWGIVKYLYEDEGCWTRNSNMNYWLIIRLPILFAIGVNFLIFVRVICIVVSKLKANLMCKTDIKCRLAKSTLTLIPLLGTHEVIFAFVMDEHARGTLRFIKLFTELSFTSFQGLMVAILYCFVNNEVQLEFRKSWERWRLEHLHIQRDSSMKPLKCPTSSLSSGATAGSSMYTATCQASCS
recombinant human glucagon receptor (human), sequence (P47871 26-477): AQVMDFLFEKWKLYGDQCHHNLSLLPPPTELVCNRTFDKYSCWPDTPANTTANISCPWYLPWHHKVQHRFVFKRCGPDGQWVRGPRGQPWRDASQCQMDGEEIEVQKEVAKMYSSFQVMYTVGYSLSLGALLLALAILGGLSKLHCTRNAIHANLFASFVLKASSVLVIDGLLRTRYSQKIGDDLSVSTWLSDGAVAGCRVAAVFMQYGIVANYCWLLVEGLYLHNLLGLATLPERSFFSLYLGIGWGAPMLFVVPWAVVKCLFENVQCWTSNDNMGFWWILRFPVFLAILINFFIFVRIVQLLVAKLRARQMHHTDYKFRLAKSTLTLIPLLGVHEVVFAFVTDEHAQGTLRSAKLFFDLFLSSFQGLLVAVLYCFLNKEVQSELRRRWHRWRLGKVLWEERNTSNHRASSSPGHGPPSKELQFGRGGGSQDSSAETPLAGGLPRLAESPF
dulaglutide (Fc fusion), sequence (chain): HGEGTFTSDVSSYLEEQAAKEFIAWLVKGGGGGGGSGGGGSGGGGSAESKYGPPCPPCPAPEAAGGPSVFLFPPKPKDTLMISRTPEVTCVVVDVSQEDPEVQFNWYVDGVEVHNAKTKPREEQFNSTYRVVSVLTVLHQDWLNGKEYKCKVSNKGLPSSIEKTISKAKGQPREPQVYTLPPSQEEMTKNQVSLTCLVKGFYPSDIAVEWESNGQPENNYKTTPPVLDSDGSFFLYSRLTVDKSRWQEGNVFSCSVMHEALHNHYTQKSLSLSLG

For the substance dulaglutide (Fc fusion), in test [1], the EC50, GLP-1 Receptor Assay (cAMP); sample C6.5-4 C.-4 wk stood at 0.37 nM; the EC50, GLP-1 Receptor Assay (cAMP); sample C6.5-40 C.-4 wk is 0.31 nM; the EC50, GLP-1 Receptor Assay (cAMP); sample C6.5MT-4 C.-4 wk was determined as 0.4 nM; the EC50, GLP-1 Receptor Assay (cAMP); sample C6.5MT-40 C.-4 wk was found to be 0.29 nM. In test [2], this substance showed an EC50, GIP Receptor Assay (cAMP); sample C6.5-4 C.-4 wk of over 100 nM; an EC50, GIP Receptor Assay (cAMP); sample C6.5-40 C.-4 wk of over 100 nM; an EC50, GIP Receptor Assay (cAMP); sample C6.5MT-4 C.-4 wk of over 100 nM; an EC50, GIP Receptor Assay (cAMP); sample C6.5MT-40 C.-4 wk of over 100 nM. In test [3], the EC50, Gcg Receptor Assay (cAMP); sample C6.5-4 C.-4 wk amounted to 51.9 nM; the EC50, Gcg Receptor Assay (cAMP); sample C6.5-40 C.-4 wk is over 100 nM; the EC50, Gcg Receptor Assay (cAMP); sample C6.5MT-4 C.-4 wk was 54 nM; the EC50, Gcg Receptor Assay (cAMP); sample C6.5MT-40 C.-4 wk was over 100 nM.

These data come from US20170114115A1.
